Assay: yeast display, Sf9 membrane polyspecificity reagent, FACS + sequencing; frameworks hold sequencing errors
Method in brief: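 Nanobodies came from a synthetic yeast display library in Saccharomyces cerevisiae BJ5465, induced with galactose for 36–48 hours and stained for 1 hour at 4 °C with 10% biotinylated, detergent-solubilized Sf9 membrane reagent. Cells were enriched on streptavidin microbeads and then FACS-sorted, with low and high (top ~1%) gates set on anti-HA fluorescence for expression and streptavidin fluorescence for reagent binding. Each polyreactivity label reflects the gate a clone came from. Genes were amplified by colony PCR, sequenced by MiSeq 2 × 250 and filtered by CDR length.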

Sequence	polyreactivity (PSR sort gate)
QVQLVESGGGLVQAGGSLRLSCAASGFTFPRNAMGWYRQAPGKERELVAAISRGGGGTYYADSVKGRFTISRDNAKNTVYLQMNSLKPEDTAVYYFNAVYPGGSYKYDYWVQGTQVTVSS	high polyreactivity
QVQLVESGGGLVQAGGSLRLSCAASGRIFWQNAMGWYRQAPGKERELVAAISSRGGTTYYADSVKGRFTISRDNAKNTVYLQMNSLIPEDTAVYYCNAALLLRYRGFFTVAAYDYWGQGTQVTVSS	low polyreactivity
QVQLVESGGGLVQAGGSLRLSCAASGRTFRWYAMGWYRQAPGKESELVASISRGGSTSYADSVKGRFTISRDNAKNTVYLQMNSLKPEDTAVYYCAAGGFARTISYYWGQGTQVTVSS	high polyreactivity
QFQLVESVGGLVQAGGSLRLSCAASGNIFPAYAMGWYRQAPGKERELVAAISKSGGRTYYADSVKGRFTISRDNAKNTVYLQMNSQKPEDTAVYYALLTVLRAVPYSVRYDYCGQGTQVTVSS	high polyreactivity
QVQLVESGGGLVQAGGSLRLSCAASGSTFGAYAMGWYRQAPGKEREFVAAISGGGDGTYADSVKGRFTISRDNAKNTVYLQMNSLKPEDTAVYYCAAEDVPYDREDYWGQGTQVTVSS	low polyreactivity
QVQLVESGGGLVQAAGSLRLSCAASGRTFFPYAMGWYRQAPGKEREFVAAITKTDDSTYYADSVKGRFTISRDNAKNTVYLQMNSLKPEDSAVYYCNAGDTQIRFYYWGQVTQVTVSS	low polyreactivity
QVQLVESGGGVVQAGGSLRLSCAASGIIFYRYAMGWYRQAPGKERELVARITNGGNTYYADSVKGRFTISRDNAKNTVYLQMNSLKPEDTAVYYCAVRVFGYSPYSNWMYYWGQGTQVTVSS	high polyreactivity
QVQLVETGGGLVQAGGSLRLSCAGSVSIFNRNAMGWYRQAPGKERELVAAISNSGARTYYADSVKGRFTISRDNAKNTVYLQMNSLKPEDTAVYYCTAVRRRSKLYNYWGQGTQVTVSS	high polyreactivity
QVHLVESGGGLVQAGGSLRLSCAASGRIFIYYAMGWYRQAPGKERELVAAISWCGGRTYYADSVKGRFTISRDNAKNTVYLQMNSLKPEDTAVYYCAAGVYTGQHEYDYWGQGTQVTVSS	low polyreactivity
QVHLVESGGGLVQAGGSLRLSCAASGIIFEYNAMGWYRQAPGKERELVAAITSTDNTNYADSVKGRFTISRDNAKKTVYLQMNILIPEDTAVYYCNTDYWLSVVYAMDYWGQGTQVTVSS	low polyreactivity
QVQHVESGGGLVQAGGSLRLSCAASGFIFRRYVMGWYRQAPGKERELVAAISYGGGSTYYADSVKGRFTISRDNAKNTVYLQMNCLKPEDTAVYYCNAVSYNLAAYDYWGQGTQVTVSS	high polyreactivity
QVQLVESGGGLVQAGGSLRLSCAASGSIFGYYAMGWYRQAPGKERELVAAITWNADGTYYADSVKGRFTISRDNAKNTVYLQMNSLKPEDTAVYYCAADQYYQDWGGGYDYWGQGTQVTVSS	low polyreactivity
QVQLVESGGGLVQAGGSLRLSCAASGYIFDGNAMGLYRQAPGKERELVASISSGTSTYYADSVKGRFTISRDNAKNTVYLQMNSLKPEATAVYYCNAGVEFAASLYYSDNYDYWGQGTQVTVSS	low polyreactivity
QVHLVESGGGIVQAGGSLRLSCAASGFTFRRYAMGWYRQAAGKERELVATITKGGGRTYYADSVKGRFTISRDNAKNTVYLQMNSLKPEDTAVFYCNASLTYDYNYWGPGTQVTVSS	high polyreactivity
QVQLVESGGGLVQAGGSLRLSCAASGRTYHAYAMGWYRQAPGKGRELVAAITRTGTTHYADSVKGRFTISRDNAKNTVYLQMNSLKPEETAVYYCNKATQFYQWGASPYYPRRDYWGQGTQVTVSS	low polyreactivity
QVHLVESGGGLVQAGGSLRLSCAASGGTFGYYAMGWYRPAPGKERELVAAINARGDSTYYADSVKGRFTISRDNAKNTVYFLMNSLKPEDTAVYYCNTGIALFGYKYHYWGQGTQVTVSS	low polyreactivity
QVQLVESGGGLVQAGGSLRLSCAASGFIFGSYTMGWYRQAPGKERELVAAITTGGSTNYADSVKGRFTISRDNAKNTVYLQMNSLKPEDTAVYYCAARTVGFYRYDYWGQGTQVTVSS	low polyreactivity
QVQLRESGAGGRQPAPELRGERQYFYWSADGLVSQPPGKEREFVAGIDRGTITNYADSVRGRFTISRDNAKNTVYLQMNSLKPEDTAVYYCNAEYRRRPKLGDEDEYWGHGTQVTVSS	high polyreactivity
QVQLVESGGGLVQAGGSLRLSCAACGRTFWSYAMGWYLQAPGKERELVAAINSGGSTDYADSVKGRFTISRDNAKNTVYLQMNSLKPEDTAVYYCAADTWYGFDWGQGTQVTVSS	high polyreactivity
QVQLVESGGGLVQAGGSLRLSCAASGSTFRTNAMGWYRQAPGKERELVAAITYRAGNTYYADSVKGRFTISRDNAKNTVYLQMNSLKPEDTAVYYCNAESLSFPARGRAYRYYYWGQGTQVTVSS	high polyreactivity
QVQLVESGGGLVQAGGSLRLSCAASGRTFGYYAMGWYRQAPGKERELVAAISWRGTSTYYADSVKGRFTISRDNAKNTVYLQMNSLKPEDTAVYYCAVGRTVAHRFIAGDYWGQGTQVTVSS	high polyreactivity
QVQHVESGGGLVQAGGSLRLSCAASGSTFLVYAMGWYRQAPGKERELVAAISGAGSTTYADSVKGRFTISRDNAKNTVYLQMNSMKPEDTAVSYCNARTVAIWSERYYWGQGTQVTVSS	low polyreactivity

Sequence	polyreactivity (PSR sort gate)
QVQLVESGGGLVQAGGSLRLSCAASGSILYLNAMGWYRQAPGKERELVASISSSGGNTYYADSVTGRFTISRDNAKNTVYFQMNSLKPEDTAVYYCNTRWVHRDWYDYWGQGTQVTVSS	high polyreactivity
QVQLVESGGGLVQAGGSLRLSCAASGSIFSHYAMGWYRQAPGKERELVAAISSSGNTYYADSVKGRFTISRDNAKNTVYLQMNSLKPEDTAVYYCNAVVYSPYRYEYWGQGTQVTVSS	low polyreactivity
QVQLEDSGGCLVQAGGRLRLSCAASGITYGRNTMGRYRQAPGKERELVAAIDSGGNTYADSVKGRFTISRDNAKITVYLQMNSLKPEDTAVYYCAVYGGEFSSYGYWGQGTQVTVSS	low polyreactivity
QVQLVESGAGLVQAGGSLRLTCAPSGSIFNIYSMGWYRQAPGKDRELVATITGIADSTYYADSVKGRFTISRDNANNTVYLQMNILKPEDTAFYYCAADIYVAEYDYWGQGTQVTVSS	low polyreactivity
QVQLVESGGGLVQAGGSLRLSCAASGRTFHGYAMGWYRQAPGKERELVARINWSDGRTYYADSVKGRFTISRDNAKNTVFLQMNSLKPEDTAVYYCAADKTVSYAPAWYYYWGQGTQVTVSS	low polyreactivity
QVQLVESGGGLVHAGGSLRLSCAASGSTFGFYARGWYRQAPGKERELVAAITTGGSTNYADSVKGRFTISRVNAKNTVYLQMYSLKPEDSAVYYCHADVYWNPYYDYDYWGQGTLVTVSS	high polyreactivity
QVQLVESGGGLVQAGGSLRLSCAASGSIVGYAMGWYRQAPGKERELVAAISSGGSTNYADSVKGRFTISRDNAKNTVYLQMNSLKPEDTAVYYCAKSWRWRANLRGYYWGQGTQVTVSS	high polyreactivity
QVQLVESGGGLVQAGGSLRLSCAASGSIFYRNAMGWYRQAPGKERELDAAIDSGDSTNYADSVKGRFTISRDNAKNTVYLQMNSLKPEDTAVYYCAARVIYYYGSGPYDYWGQGTQVTVSS	low polyreactivity
QDQLVESGGGLVQAGCSLRLSCAASGSTFHLNAMGWYRQAPGKERELVAAITWSGGSTYYADSVKGRFTISRDNAKNTVYLQMNSLKPEDTAVYYCNAGLGKFPVKGGRRYRLDYWGQGTQVTVSS	low polyreactivity
QVQLVESGGGLVQAGGSLRLSCAASGRIFSRYAMGWYRQAPVKERELVADITYNGGSTYYADSVKGRFTISRDNAKHTVYLQMNSLQPDDTAVYYCNAVEVLDEGWGFWYYYWGQATQVTVSS	high polyreactivity
QVQLVESGGGLVQAGGSLRLSCAASGRIFKHYAMGWSRQAPGKERELVAAITNGGRTNYADSVKGRFTISRDNAKNTVYLQMNSLKPADTAVYYGNSESSPPYSITKFDYWGQGTQVTVSS	low polyreactivity
QVQLVESGGGLVQAGVSLRLSCAASGLTFNYYDMGWYRQAPGKERELVAAISRSGTNTSYADSEKGRFTISRDNAKNTVYLQMNSLKPEDTAVYYCNADYYSRIVGVRIYDYWGQGTQVTVSS	low polyreactivity
QVQLVESGGGLVQAGGSLRLSCAASGSIFEEYAMGWYRQAPGKERELVARIDESGGSTYYADSVKGRFTISRDNAKNTVYLQMNSLKPEDTAVYYCAAERYSDSWGFYSVDEGSWEMDYWGQGTQVTVSS	low polyreactivity
QVQLVESGGGLVQAGGSLRLSCAASGRIFKSNAMGWYRQAPGKERELVASISRSGSTNYADSVKGRFTISRDNAKNTVYLQMNSLKPEDTAVYYCAKDPDAKGGGYDYWGQGTQVTVSS	low polyreactivity
QVQLVESGGGLVQAGGSLRLSCAASGLTFYRYAMGWYRQAPGKERELVAAISSSGGSTYYADSVKGRFTISRDNAKNTVYLQMNSLKPEDTAVYYCAAKRVSVPYGYWGQGTQVTVSS	high polyreactivity
QVQLVESGGGLVQAGGSLRLSCAASGIIFLEYAMGWYRQAPGKERELVAAISSDDGSSTYYADSVKGRFTISRDNAKNTVYLKMNSLKPEDTAVYYCAAYGGGGYYYDYEYWGQGTQVTVSS	high polyreactivity
QVQLVESGGGLVQAGGSLRLSCAASGFIFHRNAMGWYRPAPGKERELVASITKRGGNTYYADSVKGRFTISRDNAKNTVYLQMNSLKPEDTAVYYCATQLWGWDWKRDYWGQGTQVTVSS	high polyreactivity
QVHLVESGGGLVQAGGSLRLSCAASGRIFAWYAMGWYRQAPGKERELVAAITWGGGRTYYADSVKGRFTISRDNAKNTVYLQMNSLKPEDSAFYYCNRDFDDEMWGQGTQVTVSS	low polyreactivity
QVQLVESGGGLVQAGGSLRLSCAASVSTFYSYAMGAYRKAPGKERELVATISTRGGSTYYADSVKGRFTISRDNAKNTVYLHMNSLKPEDTAVYYCNVRLEYRYYRGDYWGHGTQVTVSS	high polyreactivity
QVQLVESGGGLVQAGGSLRLSCAASGRIFVYYAMGWYRQAPGQEREFVATISSTGGSTYYADSVKGRFTISRDNAKNTVYLQMNSLKPEDTAVYYCAVRGWYPGVRYDYWGQGTQVTVSS	low polyreactivity
QVQLVESGGGLVQAGGSLRLSCAASGSTFNINGMGWYRQAPGKERELVASITGSGGNTYYADSVKGRFTISRDNAKNTVYLQMNSLKPEDTAVYYCNTTLYTGQPGRTFDYWGQGTQVTVSS	low polyreactivity

Source: the nanobody polyreactivity screen of Harvey et al. (2022)
